Assay results as given in patent US10189887B2, “Polypeptides and uses thereof for reducing CD95-mediated cell motility” (INSERM (INSTITUT NATIONAL DE LA SANTÉ ET DE LA RECHERCHE …, priority 2014, dated 2019).

How the values were obtained:
[1] = tested on: CD95-mediated Ca^2+ response; assay: Calcium response to cl-CD95L in Jurkat cells (Fura2/FuraPE3 video imaging); type: cell-based; conditions: 100 ng/ml cl-CD95L
Procedure: (§1) Cells were loaded with Fura2-AM (1 μM) at resting temperature for 30 min in Hank's Balanced Salt Solution (HBSS). After washing with HBSS, the cells were incubated for 15 min in the absence of Fura2-AM to complete de-esterification of the dye. Cells were placed in a thermostated chamber (37° C.) of an inverted epifluorescence microscope (Olympus IX70) equipped with a ×40, UApo/340-1.15 W water-immersion objective (Olympus), and fluorescence micrograph images were captured at 510 nm and at 12-bit resolution by a fast-scan camera (CoolSNAP fx Monochrome, Photometrics). To minimize UV light exposure, 4×4 binning function was used. Fura2-AM was alternately excited at 340 and 380 nm, and ratios of the resulting images (excitations at 340 and 380 nm and emission filter at 520 nm) were produced at constant intervals (5 s or 10 s according to the stimulus). […] Fluorescent images were pseudocolored using the IMD display mode in MetaFluor and assembled without further manipulation in Photoshop (Adobe). Raw data were acquired with MetaFluor and graphed in Origin (OriginLab). [Ca^2+]i was calculated using the following equation: [Ca^2+]i=Kd(R−Rmin)/(R−Rmax)×Sf2/Sf1, where Kd is the Fura2-AM dissociation constant at the two excitation wavelengths (F340/F380); Rmin is the fluorescence ratio in the presence of minimal calcium, obtained by chelating Ca^2+ with 10 mM EGTA; Rmax is the fluorescence ratio in the presence of excess calcium, obtained by treating cells with 1 μM ionomycin; Sf2 is the fluorescence of the Ca^2+-free form; and Sf1 is the fluorescence of the Ca^2+-bound form of Fura2-AM at excitation wavelengths of 380 and 340 nm, respectively. In some experiments cells were placed in a Ca^2+-free medium consisting of the HBSS described above in which CaCl2 was omitted and 100 μM EGTA was added in order to chelate residual Ca^2+ ions. This medium was added to the cells just before recording to avoid leak of the intracellular calcium stores.
T cells were loaded with Fura-PE3-AM (1 μM) at room temperature for 30 min in Hank's Balanced Salt Solution (HBSS). After washing, the cells were incubated for 15 min in the absence of Fura-PE3-AM to complete de-esterification of the dye. Cells were placed in the temperature controlled chamber (37° C.) of an inverted epifluorescence microscope (Olympus IX70) equipped with an ×40 UApo/340-1.15 W water-immersion objective (Olympus), and fluorescence micrograph images were captured at 510 nm and 12-bit resolution by a fast-scan camera (CoolSNAP fx Monochrome, Photometrics). To minimize UV light exposure, a 4×4 binning function was used. Fura-PE3 was alternately excited at 340 and 380 nm, and the ratios of the resulting images (emission filter at 520 nm) were produced at constant intervals (10 seconds). The Fura-PE3 ratio (Fratio 340/380) images were analyzed offline with Universal Imaging software, including Metafluor and Metamorph. Fratio reflects the intracellular Ca^2+ concentration changes. Each experiment was repeated 3 times, and the average of more than 20 single-cell traces was analyzed.

[2] = tested on: CD95-mediated Ca^2+ response; assay: Calcium response to cl-CD95L in activated PBL; type: cell-based, human; conditions: human PBLs pretreated 1 μM, 1 h (positive control); 100 ng/ml cl-CD95L
Procedure: as §1
All cells were purchased from ATCC (Molsheim Cedex, France). T leukemic cell lines CEM, H9 and Jurkat were cultured in RPMI supplemented with 8% heat-inactivated FCS (v/v) and 2 mM L-glutamine at 37° C. in a 5% CO2 incubator. CEM-IRC cell expressing a low amount of plasma membrane CD95 was described in (Beneteau et al., 2007; Beneteau et al., 2008). […]
T cells were loaded with Fura-PE3-AM (1 μM) at room temperature for 30 min in Hank's Balanced Salt Solution (HBSS). […] Cells were placed in the temperature controlled chamber (37° C.) of an inverted epifluorescence microscope (Olympus IX70) equipped with an ×40 UApo/340-1.15 W water-immersion objective (Olympus), and fluorescence micrograph images were captured at 510 nm and 12-bit resolution by a fast-scan camera (CoolSNAP fx Monochrome, Photometrics). […]

Th17 cells = assay: Endothelial transmigration of CD4 T-cell subsets (Th17, Th1, Treg), Boyden chamber; type: cell-based, human
Procedure: Animal experiments were subject to ethical review by the University of Nottingham were appropriate and conducted using PPL 40/3412 in accordance with the UK Home Office guidance and under ASPA (1986). For the generation of murine T-cell subsets, spleens were removed from C57Bl/6 mice and single cell suspensions prepared. CD4^+CD62L^+ naïve cells were isolated using Miltenyi Biotec microbeads. Naïve human CD4^+ T-cells were prepared using the Miltenyi Biotec naïve CD4^+ T-cell isolation kit II, which are sorted produced a 99% pure population of CD4^+CD45RA^+ cells. Purified cells were cultured in complete IMDM media all with α-CD3 (1 μg/ml), α-CD28 (2 μg/ml), and as follows; Th1 cells IL-12 (10 ng/ml) with α-IL-4 (10 μg/ml), Th2 cells IL-4 (10 ng/ml) and α-IFN-γ (10 μg/ml), Th17 cells Il-6 (10 ng/ml), TGF-β1 (2 ng/ml), α-IFN-γ (10 μg/ml) with α-IL-4 (10 μg/ml), and Tregs IL-2 (10 ng/ml) TGF-β1 (5 ng/ml), α-IFN-γ (10 μg/ml) and α-IL-4 (10 μg/ml). Cells were converted to T-cell subsets over five days as outlined above. All cytokines were supplied by PeproTech (London, UK). Mouse CD3 (clone 2C11); human CD3 (UCHT1); mouse CD28 (37.51); human CD28 (CD28.2); mouse IL-4 (11B11); human IL-4 (MP4-25D2); mouse IFN-γ (XMG1.2); human IFN-γ B27 came from BD Pharmigen.
After hydration of the Boyden chamber membranes containing 3 μm pore size membranes (Millipore, Molsheim, France), activated T-lymphocytes (10^6) were added to the top chamber on a confluent monolayer of HUVEC in a low serum (1%)-containing medium. […] In experiments using human sera, 500 μl of serum from either healthy donors or SLE patients was added in the lower reservoir. Cells were cultured for 24 h at 37° C. in a 5% CO2 humidified incubator. Transmigrated cells were counted in the lower reservoir by flow cytometry using a standard of 2.5×10^4 fluorescent beads (Flow-count, Beckman Coulter).
Blocking antibodies were used against E-selectin and ICAM-1 in the CHEMICON® endothelial cell adhesion assay (Millipore). Briefly, after activation of the endothelial cell layer with TNF-α, anti-mouse Ig controls, anti-E-selectin or anti-ICAM-1 were added at final concentrations of 10 μg/ml. Thereafter calcein-AM-stained T-cell subsets were incubated for 24 hours and unbound cells are washed. Cells attached to the endothelium were assessed using fluorescence plate reader.

Th17 cell accumulation = assay: In vivo administration of cl-CD95L: cell accumulation in peritoneal cavity and spleen; set-up: species or system C57BL/6 mice; conditions: 24 hours
Procedure: Female C57BL/6 mice (Harlan UK) aged between 8-10 weeks were placed in groups of 6 and administered IP. Twenty-four hours following injection, mice were sacrificed and periteonial cavities were washed with 5 ml of PBS/2% FCS, blood smears were prepared, and spleens were collected. Blood smears and cytospins of periteonal cells (PECs) were stained with Giemsa and differential counts performed. Single cell suspensions of spleens and PECs were prepared, cell counts performed, CD4+CD62− T-cells were isolated with Miltenyi microbeads and number of cells determined by trypan blue exclusion. For experiments where animals received TAT-mCID or control peptides, 800 μg (40 mg/kg) was injected IP 2 hrs prior to administration of cl-CD95L. All mouse experiments were performed under ethical approval from the University of Nottingham local animal ethics committee and adhering to UK Home Office guidelines under the Project License 40/3412.
Single cell suspensions of spleens and PECs were prepared as described above. RNA was extracted from CD4 T-cells using phenol/chloroform. cDNA was prepared using the Promega GO-Script Reverse Transcription Kit and used in Real-Time PCR. Briefly, cDNA samples were subject to Taqman assay performed on a Roche Lightcycler. Results are reported as expression levels were calculated using the Δct method relative to HPRT.

Molecule: C1CCC[C@H]2CCCN3CC[C@@H](CCCCCC[C@@H]4CCCN5CC[C@@H](CC1)O[C@@H]45)O[C@@H]23 [Xestospongin C, reference compound]
- calcium response to cl-CD95L ([1]; Jurkat cells pretreated 2 μM, 20 minutes): completely blocked the initial component of the calcium response
- CD95-mediated Ca^2+ response [2]: abrogated the CD95-mediated Ca^2+ response

Molecule: Ryanodine
- calcium response to cl-CD95L ([1]; Jurkat cells pretreated 20 minutes with 10 μM Ryanodine, alone or with Xestospongin C): did not reduce the initial peak but blocked the plateau phase

B1: CD95-Fc: decoy receptor for CD95L (protein)
chain: QVTDINSKGLELRKTVTTVETQNLEGLHHDGQFCHKPCPPGERKARDCTVNGDEPDCVPCQEGKEYTDKAHFSSKCRRCRLCDEGHGLEVEINCTRTQNTKCRCKPNFFCNSTVCEHCDPCTKCEHGIIKECTLTSNTKCKEEGSRSN
modifications: left off: a dimerising Fc or GST
notes: decoy receptor for CD95L
- Th17 cell migration induced by SLE sera (Th17 cells; pre-incubation of SLE sera with decoy receptor, increasing concentrations): prevented Th17 cell migration in a dose-dependent manner

B2: cl-CD95L: recombinant homotrimeric metalloprotease-cleaved CD95L from supernatant of transfected HEK 293 cells (protein)
chain: QIGHPSPPPEKKELRKVAHLTGKSNSRSMPLEWEDTYGIVLLSGVKYKKGGLVINETGLYFVYSKVYFRGQSCNNLPLSHKVYMRNSKYPQDLVMMEGKMMSYCTTGQMWARSSYLGAVFNLTSADHLYVNVSELSLVNFEESQTFFGLYKL
- transmigration of CD4 T-cell subsets (Th17 cells; Th1 and Th17 versus Th0 and Th2, cl-CD95L 200 ng/ml): more efficient to promote the transmigration of Th1 and Th17 lymphocytes
- endothelial transmigration of Th17 T cells (Th17 cells; human Th17 cells, presence or absence of cl-CD95L): enhanced endothelial transmigration of Th17 T cells
- endothelial transmigration of Treg cells (Th17 cells; human regulatory T-cells, presence or absence of cl-CD95L): failed to induce significant Treg transmigration
- total cell counts from the PEC and spleen (Th17 cell accumulation; single IP dose cl-CD95L (200 ng) versus vehicle): significant increase in the number of lymphocytes
- Th17 lineage markers (IL-17, IL-23R, CCR6) in recruited activated CD4+ T cells, Q-PCR (Th17 cell accumulation; single IP dose cl-CD95L (200 ng)): induced the recruitment of Th17 cells
